Source: paper doi:10.1101/2025.11.04.686334 (bioRxiv, 2025)

Molecular target: HA head domain of A/Hong Kong/1/1968 (H3N2) (Influenza A virus A/Hong Kong/1/1968 …, strain)
Assay: ELISA
Conditions: both partners purified

B1: FluA-20 mAb (antibody, V domains shown)
VH: QVQLEESGPGLVKPSETLSLTCSVSGVSVTSDIYYWTWIRQPPGKGLEWIGYIFYNGDTNYNPSLKSRVTMSIDTSKNEFSLRLTSVTAADTAVYFCARGTEDLGYCSSGSCPNHWGQGTLVTVSS
VL: DIVMTQSPSSLSASIGDRVTITCRPSQNIRSFLNWFQHKPGKAPKLLIYAASNLQSGVPSRFSGSGSGTEFTLTIRSLQPEDFATYYCQQSYNTPPTFGQGTKVEIK
B1: binds.
